As usually defined, the Kd is the concentration at which binding is half-saturated. For orientation: koff means the rate constant with which the complex falls apart. A low value points to slow dissociation. The kon is the rate constant with which the complex forms. A high value points to faster complex formation. One may read the EC50 as the midpoint of the concentration-response curve. Lower therefore signals a more potent agent.

Consider nine molecules from patent publication US20140179896A1 (published 2014).

In assay [1] the target is T1, mouse vascular endothelial growth factor receptor-2 Fc chimera (Flk-1-Fc) (mouse, UniProt P35918 20-762).
T1 construct: Purchased from R&D Systems; also called mouse VEGF-R2; not shown: Fc part of the purchased chimera
Put plainly: binding to 1 nM Flk-1-Fc, % of input; radioactive equilibrium binding (assay not given). Put shortly: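 ³⁵S-Met-labeled binder protein, made by reticulocyte-lysate translation and Flag-purified, held at 0.2 or 0.5 nM with receptor-Fc (0–200 nM) for 1 h at 30° C in buffer B. Complexes captured on Protein A beads, washed, KOH-eluted. Bound signal given as % of input radioactivity minus bead-only background; one-site fit.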
T1 sequence (P35918 20-762, change not shown): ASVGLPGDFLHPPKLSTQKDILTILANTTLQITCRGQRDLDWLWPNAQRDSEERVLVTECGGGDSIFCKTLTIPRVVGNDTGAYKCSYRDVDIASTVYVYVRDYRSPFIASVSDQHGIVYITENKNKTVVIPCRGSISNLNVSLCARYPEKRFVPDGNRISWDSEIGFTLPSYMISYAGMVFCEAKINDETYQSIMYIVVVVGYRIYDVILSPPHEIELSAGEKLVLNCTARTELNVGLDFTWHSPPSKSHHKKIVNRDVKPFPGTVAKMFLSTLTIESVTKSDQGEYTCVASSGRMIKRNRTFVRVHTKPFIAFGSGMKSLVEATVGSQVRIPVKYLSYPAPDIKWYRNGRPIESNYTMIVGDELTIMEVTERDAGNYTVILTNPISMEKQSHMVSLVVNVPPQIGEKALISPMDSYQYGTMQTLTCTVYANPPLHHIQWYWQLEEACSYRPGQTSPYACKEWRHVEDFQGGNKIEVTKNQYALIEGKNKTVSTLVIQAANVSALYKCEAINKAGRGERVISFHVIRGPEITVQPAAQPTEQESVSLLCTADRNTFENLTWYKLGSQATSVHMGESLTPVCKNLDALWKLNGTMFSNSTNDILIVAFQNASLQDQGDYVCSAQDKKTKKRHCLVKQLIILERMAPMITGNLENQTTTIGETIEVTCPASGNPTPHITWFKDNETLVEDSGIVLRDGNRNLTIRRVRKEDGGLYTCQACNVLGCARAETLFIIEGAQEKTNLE

Assay [2] concerns the target full-length human KDR on cells (human, UniProt P35968 20-1356). Put plainly: cell-based or functional assay.
Assay [3] deals with T2, human vascular endothelial growth factor receptor-2 Fc chimera (KDR-Fc) (human, UniProt P35968 20-764).
T2 construct: range 1-764; also called human VEGFR-2; hKDR; not shown: human IgG1 Fc
Put plainly: binding to 1 nM KDR-Fc, % of input; radioactive equilibrium binding (assay not given). Put shortly: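 Tracer: ³⁵S-Met protein from reticulocyte lysate, Flag-bead purified, no nucleic acid tail. 0.2/0.5 nM binder + 0–200 nM receptor-Fc, 30° C 1 h, buffer B; Protein A bead capture 10 min RT; 0.1 M KOH elution; scintillation count.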

Assay [4] deals with T2, human vascular endothelial growth …. Put plainly: radioactive equilibrium binding (assay not given). The procedure: (§1) To prepare ³⁵S-labeled binding proteins for analysis, mRNA was prepared as described above for RNA-protein fusion production but the linker ligation step was omitted. The mRNA was expressed using rabbit reticulocyte lysate translation kit (Ambion) in the presence of ³⁵S-labeled Met at 30° C. for 1 hour. Expressed protein was purified on M2-agarose Flag beads (Sigma) as described above. This procedure produced the encoded protein without the nucleic acid tail. In a direct binding assay, VEGF-R2-Fc fusions in concentrations ranging from 0 to 200 nM were added to a constant concentration of the purified protein (0.2 or 0.5 nM) and incubated at 30° C. for 1 hour in buffer B. The receptor-binder complexes were captured using Protein A magnetic beads for another 10 minutes at room temperature using a Kingfisher™ The beads were washed with six reaction volumes of buffer B. The protein was eluted from the beads with 100 μL of 0.1 M KOH. […] of the reaction mixture and elution were dried onto a LumaPlate-96 (Packard) and the amount of ³⁵S on the plate was measured using a TopCount NXT instrument (Packard). The amount of fibronectin-based scaffold protein bound to the target was estimated as a percent of radioactivity eluted from Protein A magnetic beads compare to radioactivity in the reaction mixture. Nonspecific binding of fibronectin-based scaffold proteins to the beads was determined by measuring binding in the absence of KDR-Fc and represented less than 1-2% of the input. Specific binding was obtained through subtraction of nonspecific binding from total binding. Data was analyzed using the GraphPad Prizm software (GraphPad Software, Inc, San Diego, Calif.), fitted using a one site, non-linear binding equation.

The target in assay [5] is T1, mouse vascular endothelial growth …. Put plainly: radioactive equilibrium binding (assay not given). As to the method:
as §1

Assay [6] deals with T3, full-length human KDR on cells (human, UniProt P35968 20-1356). Put plainly: cell-based or functional assay. This is another data set of the same source.
The target in assay [7] is T4, human vascular endothelial growth factor receptor-2 Fc chimera (KDR-Fc) (human, UniProt P35968 20-764).
T4 construct: range 1-764; purchased from R&D Systems; also called hKDR; human VEGF-R2-Fc; not shown: human IgG1 Fc
Put plainly: BIAcore, target-Fc immobilized. As to the method: (§2) The binding kinetics of fibronectin-based scaffold proteins binding proteins to the target was measured using BIAcore 2000 biosensor (Pharmacia Biosensor). Human and mouse VEGF-R2-Fc fusions were immobilized onto a CM5 sensor chip and soluble binding proteins were injected at concentrations ranging from 0 to 100 nM in buffer 0 (10 mM HEPES, 150 mM NaCl, 0.005% Tween 20, pH 7.4). Sensorgrams were obtained at each concentration and were evaluated using a program, BIA Evaluation 2.0 (BIAcore), to determine the rate constants kₐ (kₒₙ) and kd (koff.) The affinity constant, KD was calculated from the ratio of rate constants […].
(SPR reads the build-up and loss of mass on a sensor chip optically.)

Assay [8] deals with T5, mouse vascular endothelial growth factor receptor-2 Fc chimera (Flk-1-Fc) (mouse, UniProt P35918 20-762).
T5 construct: purchased from R&D Systems; also called mouse VEGF-R2-Fc; not shown: Fc part of the purchased chimera
Put plainly: BIAcore, target-Fc immobilized. The procedure: as §2
T5 sequence (P35918 20-762, change not shown): as above

In assay [9] the target is T3, full-length human KDR on cells. Put plainly: flow cytometry on CHO KDR cells. As to the method:
(§3) The functionality of KDR and Flk-1 binding molecules in a cell culture model system was evaluated with E. coli produced binding molecules.
(§4) Binding of fibronectin-based scaffold protein to cell-surface KDR and Flk-1 was analyzed simultaneously on VEGF-R2-expressing and control cells by flow cytometry. CHO-pcDNA3 cells (control) were released from their dishes with trypsin-EDTA, washed in Dulbecco's PBS without calcium and magnesium (D-PBS⁻; Invitrogen), and stained for 30 minutes at 37° C. with 1.5 μM CMTMR (5-(and -6)-(((4-chloromethyl)benzoyl)amino)-tetramethylrhodamine) (Molecular Probes). The cells were washed in D-PBS⁻ and incubated for a further 30 minutes at 37° C., and then resuspended in blocking buffer (D-PBS⁻/10% fetal bovine serum) on ice. CHO-KDR or CHO-Flk cells were treated identically except that CMTMR was omitted. 75,000 of CMTMR-stained CHO-pcDNA3 cells were mixed with an equal number of unstained CHO-KDR or CHO-Flk cells in each well of a V-bottom 96-well plate. All antibodies and fibronectin-based scaffold proteins were diluted in 25 μl/well of blocking buffer, and each treatment was conducted for 1 hour at 4° C. Cell mixtures were stained with His₆-tagged (SEQ ID NO: 235) fibronectin-based scaffold proteins, washed twice with cold D-PBS⁻, and then treated with 2.5 μg/ml anti-His₆ (SEQ ID NO: 235) MAb (R&D Systems), washed, and stained with 4 μg/ml Alexa Fluor 488-conjugated anti-mouse antibody (Molecular Probes). For cells treated with an anti-KDR mouse monoclonal antibody (Accurate Chemical, Westbury, N.Y.) or an anti-flk-1 goat polyclonal antibody (R&D Systems), the anti-His₆ (SEQ ID NO: 235) step was omitted, and antibody binding was detected with the species-appropriate Alexa Fluor 488 conjugated secondary antibody (Molecular Probes). Following staining, cells were resuspended in 200 μl/well D-PBS⁻/1% FBS/1 μg/ml 7-aminoactinomycin D (7-AAD; Molecular Probes) and analyzed by flow cytometry on a FACSCalibur (Becton Dickinson, San Jose, Calif.) equipped with a […].
(In flow cytometry, cells or beads pass a laser one at a time.)

The target in assay [10] is human KDR/EpoR fusion (phKE8) on Ba/F3 cells (human, UniProt P35968 20-764; P19235 251-508, limits assumed). Put plainly: cell-based or functional assay.
Assay [11] concerns the target T6, murine VEGFR-2/EpoR chimera (flk-1/EpoR fusion, pmKE2) on cells (mouse; human, UniProt P35918 20-762; P19235 251-508, limits assumed). Put plainly: cell-based or functional assay.
The target in assay [12] is T4, human vascular endothelial growth …. Put plainly: radioactive equilibrium binding assay. As to the method: as §1
Assay [13] addresses T5, mouse vascular endothelial growth …. Put plainly: radioactive equilibrium binding assay. As to the method:
as §1

The target in assay [14] is T6, murine VEGFR-2/EpoR chimera (flk-1/EpoR …). Put plainly: flow cytometry on CHO Flk-1 cells. As to the method: as §3, §4
The target of assay [15] is T4, human vascular endothelial growth …. Put plainly: SPR (BIAcore), target immobilized. The procedure: (§5) In vitro affinity measurements were made using surface plasmon resonance (SPR) (BIAcore) with both the human and mouse VEGF-receptor target proteins immobilized via amide chemistry on the BIAcore chip.
as §2

In assay [16] the target is T5, mouse vascular endothelial growth …. Put plainly: SPR (BIAcore), target immobilized. As to the method: as §5, §2

Positions count from the first letter of the chain named.

T6 sequence (P35918 other isoform, or with tags, fused parts or gaps mutant limits assumed, form in doubt): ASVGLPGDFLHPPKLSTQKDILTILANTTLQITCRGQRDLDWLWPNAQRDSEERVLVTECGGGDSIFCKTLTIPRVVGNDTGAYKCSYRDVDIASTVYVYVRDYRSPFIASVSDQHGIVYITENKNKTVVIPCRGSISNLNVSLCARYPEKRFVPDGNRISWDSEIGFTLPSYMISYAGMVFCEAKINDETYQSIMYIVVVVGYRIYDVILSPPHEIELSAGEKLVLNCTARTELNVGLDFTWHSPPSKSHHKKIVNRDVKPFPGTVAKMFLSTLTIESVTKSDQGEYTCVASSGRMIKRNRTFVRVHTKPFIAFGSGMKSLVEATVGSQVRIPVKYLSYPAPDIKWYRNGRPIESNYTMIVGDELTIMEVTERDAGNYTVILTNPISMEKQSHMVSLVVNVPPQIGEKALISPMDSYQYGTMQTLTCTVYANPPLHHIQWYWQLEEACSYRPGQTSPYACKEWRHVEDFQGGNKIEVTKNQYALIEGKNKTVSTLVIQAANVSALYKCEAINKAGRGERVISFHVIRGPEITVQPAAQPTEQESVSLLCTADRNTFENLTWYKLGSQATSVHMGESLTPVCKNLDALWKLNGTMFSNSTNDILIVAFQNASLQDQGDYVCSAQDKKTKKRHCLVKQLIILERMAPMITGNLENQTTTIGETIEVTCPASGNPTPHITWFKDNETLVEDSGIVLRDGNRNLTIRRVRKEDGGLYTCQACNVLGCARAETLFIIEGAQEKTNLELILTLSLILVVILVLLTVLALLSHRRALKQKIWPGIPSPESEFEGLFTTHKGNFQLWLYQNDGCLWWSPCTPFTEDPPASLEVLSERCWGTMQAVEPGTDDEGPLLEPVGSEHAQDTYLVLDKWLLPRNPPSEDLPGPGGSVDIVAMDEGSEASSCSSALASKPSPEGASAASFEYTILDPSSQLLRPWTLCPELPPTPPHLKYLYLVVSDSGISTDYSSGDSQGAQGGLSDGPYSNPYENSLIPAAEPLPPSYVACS

B1: E26 (designed binder)
chain: EVVAATPTSLLISWRHPHFPTRYYRITYGETGGNSPVQEFTVPLQPPTATISGLKPGVDYTITGYAVTVERNGRELMTPISINYRT
notes: Del 1-8 10Fn3 clone; Tags not included
For the molecule B1, in [1], the “Binding to 1 nM FLK, %” value was found to be 20%. Further, the “HUVEC proliferation assay: decrease in proliferation” value (from here on “HUVEC proliferation assay: decrease”) in assay [2] was about 40%. In assay [3], the “Binding to 1 nM KDR, %” value worked out at 27%. Further, the figures for the dissociation constant (Kd) in [4] and in [5] were 1.66 nM and 2.05 nM, respectively.

B2: E29 (designed binder)
chain: B1 chain with E75V
notes: as for B1
As for B2, in [1], the “Binding to 1 nM FLK, %” value was 44%. The “HUVEC proliferation assay: decrease” value in [2] is about 40%. For the same molecule, in [3], the “Binding to 1 nM KDR, %” value came out at 41%. Also, the values for the Kd in assay [4] and in [5] were 1.51 nM and 0.91 nM, respectively.

B3: E26 (designed binder)
chain: B1 chain
notes: Del 1-8 10Fn3 clone; Flag-tagged in vitro translated protein in the radioactive assay, His6-tagged E. coli protein in BIAcore and cell assays; tags left out
With B3, the “Inhibition of VEGF-induced proliferation of HUVEC cells (IC50, nM)” value (“Inhibition … of HUVEC cells (IC50, nM)” below) in [6] worked out at 14 nM. The Kd in [7] is 0.51 nM; in assay [8] it was 2.14 nM; in assay [12] it was under 1.7 nM; in assay [13], 2 nM. In addition, the koff in assay [7] was 5.8e-05 s⁻¹; in assay [8], 0.000477 s⁻¹. In addition, the kon in assay [7] was 110000 M⁻¹ s⁻¹; in [8] it was 220000 M⁻¹ s⁻¹. Further, the EC50 in [9] came to 2.6 nM; in assay [14], 1.3 nM. Besides, the “Inhibition of VEGF-induced proliferation, Ba/F3-KDR (IC50, nM)” value (from here on “Inhibition … Ba/F3-KDR (IC50, nM)”) in assay [10] came to 3.2 nM. Also, in assay [11], the “Inhibition of VEGF-induced proliferation, Ba/F3-Flk (IC50, nM)” value (“Inhibition … Ba/F3-Flk (IC50, nM)” below) came out at 5.3 nM.

B4: E18 (designed binder)
chain: B1 chain with M77N
Regarding B4, the “HUVEC proliferation assay: decrease” value in assay [2] was about 40%.

B5: E19 (designed binder)
chain: B1 chain with E75H
notes: as for B1
For the molecule B5, the “Binding to 1 nM FLK, %” value in [1] is 40%. The “HUVEC proliferation assay: decrease” value in [2] was about 40%. Besides, the “Binding to 1 nM KDR, %” value in assay [3] worked out at 38%. The Kd in [4] worked out at 1.3 nM; in [5], 0.66 nM.

B6: E18 (designed binder)
chain: B1 chain with M77N
notes: as for B3
In the case of B6, the “Inhibition … of HUVEC cells (IC50, nM)” value in [6] is 12.8 nM. Besides, the Kd was 0.46 nM in [7], 0.33 nM in assay [8], under 1.2 nM in [12] and under 0.5 nM in assay [13]. Also, the koff was found to be 0.000121 s⁻¹ in assay [7] and 0.000195 s⁻¹ in assay [8]. In addition, the values for the kon in assay [7] and in assay [8] were 260000 M⁻¹ s⁻¹ and 600000 M⁻¹ s⁻¹, respectively. Further, the EC50 in assay [9] was 4.2 nM; in [14], 0.9 nM. Besides, the “Inhibition … Ba/F3-KDR (IC50, nM)” value in assay [10] was 5.4 nM. The “Inhibition … Ba/F3-Flk (IC50, nM)” value in assay [11] turned out to be 2.4 nM.

B7: M5FL C100 (designed binder)
chain: MGVSDVPRDLEVVAATPTSLLISWRHPHFPTRYYRITYGETGGNSPVQEFTVPLQPPLATISGLKPGVDYTITVYAVTKERNGRELFTPISINYRTEIDKPCQHHHHHH
notes: unmodified M5FL with C-terminal extension, Cys100 and His tag; a significant percentage is produced with the initial methionine removed; also called C100-form of the M5FL protein
In assay [15], B7 yielded a Kd of 0.9 nM, a koff of 6.7e-05 s⁻¹ and a kon of 74000 M⁻¹ s⁻¹. In [16], the Kd came to 2.1 nM, the koff worked out at 0.0003 s⁻¹ and the kon was determined as 146000 M⁻¹ s⁻¹.

B8: M5FL-PEG20 (designed binder)
chain: B7 chain
modifications: linear 20 kD PEG coupled by maleimide chemistry to the cysteine residue at position 100
notes: also called M5FL 20K PEG
B8: in [15], binding was put at a Kd of 5.9 nM, the koff came out at 5.4e-05 s⁻¹ and the on-rate (kon) was 9000 M⁻¹ s⁻¹. In assay [16], this molecule displayed a Kd of 22.8 nM, a koff of 0.00055 s⁻¹ and a kon of 24000 M⁻¹ s⁻¹.

B9: M5FL (designed binder)
chain: VSDVPRDLEVVAATPTSLLISWRHPHFPTRYYRITYGETGGNSPVQEFTVPLQPPLATISGLKPGVDYTITGYAVTKERNGRELFTPISINYRT
notes: extension and tag left out
For B9, the “Inhibition … of HUVEC cells (IC50, nM)” value in assay [6] was found to be 8.5 nM. In [7], the Kd amounted to 0.89 nM, the koff stood at 9.2e-05 s⁻¹ and the kon was 100000 M⁻¹ s⁻¹. In assay [8], this molecule came in with a Kd of 2.1 nM, an off-rate (koff) of 0.000582 s⁻¹ and a kon of 280000 M⁻¹ s⁻¹. For the same molecule, the “Inhibition … Ba/F3-KDR (IC50, nM)” value in assay [10] was 3.9 nM. Further, the “Inhibition … Ba/F3-Flk (IC50, nM)” value in [11] turned out to be 5.1 nM.
